Measured values taken from IntAct's records for PubMed 26278177.

B1: DNA repair protein complementing XP-C cells (Homo sapiens), Q01831-1 (parent)
chain: MARKRAAGGEPRGRELRSQKSKAKSKARREEEEEDAFEDEKPPKKSLLSKVSQGKRKRGCSHPGGSADGPAKKKVAKVTVKSENLKVIKDEALSDGDDLRDFPSDLKKAHHLKRGATMNEDSNEEEEESENDWEEVEELSEPVLGDVRESTAFSRSLLPVKPVEIEIETPEQAKTRERSEKIKLEFETYLRRAMKRFNKGVHEDTHKVHLLCLLANGFYRNNICSQPDLHAIGLSIIPARFTRVLPRDVDTYYLSNLVKWFIGTFTVNAELSASEQDNLQTTLERRFAIYSARDDEELVHIFLLILRALQLLTRLVLSLQPIPLKSATAKGKKPSKERLTADPGGSSETSSQVLENHTKPKTSKGTKQEETFAKGTCRPSAKGKRNKGGRKKRSKPSSSEEDEGPGDKQEKATQRRPHGRERRVASRVSYKEESGSDEAGSGSDFELSSGEASDPSDEDSEPGPPKQRKAPAPQRTKAGSKSASRTHRGSHRKDPSLPAASSSSSSSKRGKKMCSDGEKAEKRSIAGIDQWLEVFCEQEEKWVCVDCVHGVVGQPLTCYKYATKPMTYVVGIDSDGWVRDVTQRYDPVWMTVTRKCRVDAEWWAETLRPYQSPFMDREKKEDLEFQAKHMDQPLPTAIGLYKNHPLYALKRHLLKYEAIYPETAAILGYCRGEAVYSRDCVHTLHSRDTWLKKARVVRLGEVPYKMVKGFSNRARKARLAEPQLREENDLGLFGYWQTEEYQPPVAVDGKVPRNEFGNVYLFLPSMMPIGCVQLNLPNLHRVARKLDIDCVQAITGFDFHGGYSHPVTDGYIVCEEFKDVLLTAWENEQAVIERKEKEKKEKRALGNWKLLAKGLLIRERLKRRYGPKSEAAAPHTDAGGGLSSDEEEGTSSQAEAARILAASWPQNREDEEKQKLKGGPKKTKREKKAAASHLFPFEQL

Variants of: B1
Conditions: with tf2h1_human GTF2H1, P32780
Sequence of tf2h1_human GTF2H1, P32780 (P32780 whole entry): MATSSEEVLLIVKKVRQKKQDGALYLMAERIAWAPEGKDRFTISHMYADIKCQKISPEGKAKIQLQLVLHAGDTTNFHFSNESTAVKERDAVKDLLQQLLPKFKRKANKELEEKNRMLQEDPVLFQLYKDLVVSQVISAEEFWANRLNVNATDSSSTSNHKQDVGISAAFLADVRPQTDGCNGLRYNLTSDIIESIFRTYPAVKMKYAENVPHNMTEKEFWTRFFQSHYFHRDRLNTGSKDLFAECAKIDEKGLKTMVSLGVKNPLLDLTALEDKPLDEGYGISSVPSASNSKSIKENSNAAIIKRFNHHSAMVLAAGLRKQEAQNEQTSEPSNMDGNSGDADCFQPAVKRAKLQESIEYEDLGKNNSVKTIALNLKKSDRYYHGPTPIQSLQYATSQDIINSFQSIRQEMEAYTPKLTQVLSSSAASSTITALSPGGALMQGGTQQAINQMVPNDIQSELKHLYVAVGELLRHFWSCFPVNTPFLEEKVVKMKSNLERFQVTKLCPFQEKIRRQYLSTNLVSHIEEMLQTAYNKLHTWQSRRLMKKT

Variant | effect of a mutation on the interaction
W133A | disrupting interaction strength
E128A | decreasing interaction strength

The remaining lines, values ahead:

effect of a mutation on the interaction | Variant
decreasing interaction strength | V136A
decreasing interaction strength | W133F
decreasing interaction strength | L139A

Variants of: B1
Conditions: with ercc3_human ERCC3, P19447
Sequence of ercc3_human ERCC3, P19447 (P19447 whole entry): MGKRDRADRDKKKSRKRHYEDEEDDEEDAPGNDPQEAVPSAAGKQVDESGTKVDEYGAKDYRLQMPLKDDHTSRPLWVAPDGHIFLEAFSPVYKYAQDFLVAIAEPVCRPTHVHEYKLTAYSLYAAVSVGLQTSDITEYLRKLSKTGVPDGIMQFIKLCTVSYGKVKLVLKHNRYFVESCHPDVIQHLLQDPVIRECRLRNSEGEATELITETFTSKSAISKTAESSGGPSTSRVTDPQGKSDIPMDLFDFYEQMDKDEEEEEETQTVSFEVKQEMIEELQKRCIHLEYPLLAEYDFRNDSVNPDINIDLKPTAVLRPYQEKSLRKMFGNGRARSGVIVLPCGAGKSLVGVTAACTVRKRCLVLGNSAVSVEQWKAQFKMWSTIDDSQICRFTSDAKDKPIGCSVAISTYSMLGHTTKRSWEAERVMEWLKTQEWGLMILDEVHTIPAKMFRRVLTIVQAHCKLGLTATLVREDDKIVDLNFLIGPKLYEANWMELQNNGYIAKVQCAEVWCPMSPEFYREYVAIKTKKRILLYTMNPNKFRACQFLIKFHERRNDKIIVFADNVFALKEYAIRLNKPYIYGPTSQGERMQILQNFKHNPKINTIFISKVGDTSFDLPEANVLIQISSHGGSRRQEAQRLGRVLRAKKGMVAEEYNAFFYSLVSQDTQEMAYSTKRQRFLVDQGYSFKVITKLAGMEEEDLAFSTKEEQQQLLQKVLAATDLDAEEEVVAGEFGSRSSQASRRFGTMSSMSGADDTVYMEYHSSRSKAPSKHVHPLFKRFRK

Variant | effect of a mutation on the interaction
V136A | decreasing interaction strength
W133A | decreasing interaction strength
W133A;V136A | decreasing interaction strength
